US20100068199A1 (RINAT NEUROSCIENCE, published 2010)
Numbering of substitutions follows the chain as printed. Like-named read-outs stand apart in the source and are kept apart here. Values belong to the binder of their own block, whether it stands above or below them.

Assays:
recombinant mouse PCSK9 [1] = target: T1, recombinant mouse PCSK9 (mouse, UniProt Q80W65 35-694); assay: ELISA, blocking: biotinylated mouse PCSK9 (0.8nM) binding to immobilized human LDLR extracellular domain, pH7.5
T1 construct: also called mPCSK9; murine PCSK9
T1 sequence (Q80W65 other isoform, or with tags, fused parts or gaps limits assumed): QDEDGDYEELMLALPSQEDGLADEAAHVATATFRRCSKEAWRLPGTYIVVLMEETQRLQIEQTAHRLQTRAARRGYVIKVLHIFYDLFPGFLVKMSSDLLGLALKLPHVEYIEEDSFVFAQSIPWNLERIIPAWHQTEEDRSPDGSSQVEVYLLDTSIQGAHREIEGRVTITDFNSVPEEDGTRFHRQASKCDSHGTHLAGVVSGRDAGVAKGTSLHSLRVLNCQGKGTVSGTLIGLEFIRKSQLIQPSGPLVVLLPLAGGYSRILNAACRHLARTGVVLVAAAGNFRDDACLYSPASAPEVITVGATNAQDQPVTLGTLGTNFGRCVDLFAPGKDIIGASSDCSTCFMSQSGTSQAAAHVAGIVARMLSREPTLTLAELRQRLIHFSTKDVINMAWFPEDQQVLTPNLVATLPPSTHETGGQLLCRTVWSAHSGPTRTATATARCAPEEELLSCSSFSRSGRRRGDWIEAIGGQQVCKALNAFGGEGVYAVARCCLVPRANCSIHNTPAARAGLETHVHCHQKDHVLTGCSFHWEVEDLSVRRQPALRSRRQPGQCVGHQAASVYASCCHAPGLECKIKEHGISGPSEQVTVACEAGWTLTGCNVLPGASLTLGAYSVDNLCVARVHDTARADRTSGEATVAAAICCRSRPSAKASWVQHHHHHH
Experimental: (§1) ELISA plates (Corning Mixisorb) were coated with a solution of 1 μg/ml recombinant LDLR extracellular domain (R&D Systems) in each well at 4 C overnight, blocked with 2% BSA+PBS for 2 hrs at room temperature, and then washed 5 times with washing buffer (1×PBS+0.05% Tween-20). Wells were incubated with 50 μl of indicated concentrations of biotinylated PCSK9 protein for 1 hr RT. LDLR-PCSK9 binding can be stabilized by adding 50 μl of 4% FDH+4% sucrose+PBS solution and incubate for 5 min. Wells were washed 5 times with washing buffer, incubated with 1:2000 dilution of HRP conjugated Strepavidin (Invitrogen) for 1 hr at RT, washed 5 times with washing buffer. TMB substrate was added to the wells, the solution was incubated 20 to 30 min at RT, and the reaction was terminated using 1 M phosphoric acid. Signals were read at 450 nm.

rat PCSK9 in plasma = rat PCSK9 in plasma (rat, UniProt P59996 31-691); assay: antibody incubated with plasma, complexes purified and probed by Western blot
Sequence of rat PCSK9 in plasma (P59996 31-691 limits assumed): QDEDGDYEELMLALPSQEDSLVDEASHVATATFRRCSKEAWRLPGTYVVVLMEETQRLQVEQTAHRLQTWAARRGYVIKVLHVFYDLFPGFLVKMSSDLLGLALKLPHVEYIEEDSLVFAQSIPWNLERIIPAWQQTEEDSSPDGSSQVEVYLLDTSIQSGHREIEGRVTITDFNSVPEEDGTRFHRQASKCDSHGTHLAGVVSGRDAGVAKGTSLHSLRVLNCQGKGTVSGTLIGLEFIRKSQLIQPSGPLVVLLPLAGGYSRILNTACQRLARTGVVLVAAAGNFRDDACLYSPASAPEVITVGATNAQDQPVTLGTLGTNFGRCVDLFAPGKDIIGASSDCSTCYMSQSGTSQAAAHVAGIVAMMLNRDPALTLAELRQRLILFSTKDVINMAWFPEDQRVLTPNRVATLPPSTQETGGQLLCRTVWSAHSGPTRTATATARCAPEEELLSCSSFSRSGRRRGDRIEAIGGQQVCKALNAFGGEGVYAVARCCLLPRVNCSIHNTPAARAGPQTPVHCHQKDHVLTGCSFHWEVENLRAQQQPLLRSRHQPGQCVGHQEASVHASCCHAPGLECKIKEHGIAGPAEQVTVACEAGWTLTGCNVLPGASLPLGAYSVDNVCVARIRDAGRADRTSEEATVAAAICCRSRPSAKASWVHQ
Experimental: To determine the species specificity of the anti-PCSK9 antibodies, antibodies were incubated with plasma from different species and the resultant complexes were purified and probed by an independent anti PCSK9 antibody on Western blots. […] Id.

recombinant human PCSK9 [2] = target: T2, recombinant human PCSK9 (human, UniProt Q8NBP7 31-692); assay: TR-FRET in solution at neutral pH: biotinylated human PCSK9 (30 nM) binding to Europium labeled LDLR extracellular domain (10 nM) blocked by the mAb
T2 construct: also called hPCSK9
T2 sequence (Q8NBP7 31-692 limits assumed): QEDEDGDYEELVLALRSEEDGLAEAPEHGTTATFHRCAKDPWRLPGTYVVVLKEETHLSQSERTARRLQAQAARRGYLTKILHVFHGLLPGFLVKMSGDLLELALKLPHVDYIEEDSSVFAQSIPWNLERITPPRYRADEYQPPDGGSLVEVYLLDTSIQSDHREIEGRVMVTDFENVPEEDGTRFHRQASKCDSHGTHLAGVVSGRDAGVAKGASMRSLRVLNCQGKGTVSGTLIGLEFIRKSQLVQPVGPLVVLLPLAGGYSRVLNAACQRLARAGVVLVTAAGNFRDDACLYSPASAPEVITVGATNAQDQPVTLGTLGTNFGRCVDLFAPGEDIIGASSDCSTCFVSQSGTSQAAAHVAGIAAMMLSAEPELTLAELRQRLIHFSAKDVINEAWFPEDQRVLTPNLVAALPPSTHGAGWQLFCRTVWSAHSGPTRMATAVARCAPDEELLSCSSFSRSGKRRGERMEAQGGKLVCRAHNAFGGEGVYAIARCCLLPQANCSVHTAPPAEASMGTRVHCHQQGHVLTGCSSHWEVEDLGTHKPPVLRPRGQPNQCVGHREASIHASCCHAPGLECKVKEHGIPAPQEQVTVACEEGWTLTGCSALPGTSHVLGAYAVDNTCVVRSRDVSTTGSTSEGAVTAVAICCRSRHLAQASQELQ

recombinant human PCSK9 [3] = target: T2, recombinant human PCSK9; assay: SPR (Biacore 3000); full-length IgG captured on anti-mouse IgG, PCSK9 injected
Experimental: (§2) The affinities of PCSK9 antibodies to PCSK9 were measured on a surface plasmon resonance Biacore 3000 biosensor equipped with a research-grade sensor chip using HBS-EP running buffer (Biacore AB, Uppsala, Sweden—now GE Healthcare). Rabbit polyclonal anti-Ms IgGs were amine-coupled at saturating levels onto the chip using a standard N-hydroxysuccinimide/ethyldimethylaminopropyl carbodiimide (NHS/EDC) chemistry. The buffer was switched to HBS-EP+1 mg/mL BSA+1 mg/mL CM-dextran.
(§3) Dissociation was monitored for 5 min. The chip was regenerated after the last injection of each titration with two 30 sec pulses of 100 mM phosphoric acid. Buffer cycles provided blanks for double-referencing the data, which were then fit globally to a simple binding model using Biaevaluation software v.4.1. Affinities were deduced from the quotient of the kinetic rate constants (KD=koff/kₒₙ).

recombinant mouse PCSK9 [4] = target: T1, recombinant mouse PCSK9; assay: as above
Experimental: as §2, §3

recombinant human PCSK9 [5] = target: T2, recombinant human PCSK9; assay: competition ELISA; antibody blocks biotinylated PCSK9 binding to immobilized recombinant LDLR extracellular domain
recombinant mouse PCSK9 [6] = target: T1, recombinant mouse PCSK9; assay: as above
recombinant human PCSK9 [7] = target: T2, recombinant human PCSK9; assay: ELISA, blocking: biotinylated human PCSK9 (0.4nM) binding to immobilized human LDLR extracellular domain, pH7.5
Experimental: as §1

PCSK9 [8] = target: T3, PCSK9
T3 construct: neither names the species
T3 sequence (prodomain, as listed by the source limits assumed, chain 1 of 2): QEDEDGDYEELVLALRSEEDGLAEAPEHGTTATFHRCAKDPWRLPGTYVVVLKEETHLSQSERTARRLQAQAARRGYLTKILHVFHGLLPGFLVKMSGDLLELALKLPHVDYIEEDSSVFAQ
T3 sequence (chain, as listed by the source limits assumed, chain 2 of 2): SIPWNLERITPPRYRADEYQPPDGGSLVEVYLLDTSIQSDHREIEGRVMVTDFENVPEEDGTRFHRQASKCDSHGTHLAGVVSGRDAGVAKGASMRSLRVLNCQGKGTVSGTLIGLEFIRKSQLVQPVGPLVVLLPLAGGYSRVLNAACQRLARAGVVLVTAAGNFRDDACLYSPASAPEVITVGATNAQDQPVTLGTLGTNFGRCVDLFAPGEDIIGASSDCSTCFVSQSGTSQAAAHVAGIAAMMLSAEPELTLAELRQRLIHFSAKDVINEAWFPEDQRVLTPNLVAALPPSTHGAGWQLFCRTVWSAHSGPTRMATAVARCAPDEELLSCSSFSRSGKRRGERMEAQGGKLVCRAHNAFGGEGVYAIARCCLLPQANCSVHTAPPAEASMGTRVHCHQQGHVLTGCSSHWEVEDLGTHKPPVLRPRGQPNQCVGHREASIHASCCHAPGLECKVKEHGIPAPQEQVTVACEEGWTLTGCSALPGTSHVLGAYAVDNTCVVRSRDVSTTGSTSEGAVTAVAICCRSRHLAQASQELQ

recombinant human PCSK9 [9] = target: T2, recombinant human PCSK9; assay: Biacore; format not described
recombinant mouse PCSK9 [10] = target: T1, recombinant mouse PCSK9; assay: Biacore; format not described
PCSK9 [11] = target: T3, PCSK9; remark: listed apart in the source

B1: anti-PCSK9 antagonist monoclonal antibody 6F6 (antibody, V domains shown)
VH: EVQLQQSGPELVKPGASVKISCKASGYTFTDYYMNWVKQSHGKSLEWIGDINPNNGGTSYNQKFKGKATLTVDKSSSTAYMELRSLTSEDSAVYYCAGGGIYYRYDRNYFDYWGQGTTLTVSS
VL: DIQMTQTTSSLSASLGDRVTISCSASQGISNYLNWYQQKPDGTVKLLIYYTSSLHSGVPSRFSGSGSGTDYSLTISNLEPEDIATYYCQQYSKLPFTFGSGTKLEIK
notes: Murine full-length IgG from a hybridoma; also called 6F6.G10.3 (subclone); ATCC PTA-8984
IC50 (read off the curve) (recombinant mouse PCSK9 [1]): ~10 nM | binding result (rat PCSK9 in plasma): binds | IC50 (recombinant human PCSK9 [2]): 6.5 nM | Kd (recombinant human PCSK9 [3]): 6.4 nM | koff (recombinant human PCSK9 [3]): 0.000584 s⁻¹ | kon (recombinant human PCSK9 [3]): 91500 M⁻¹ s⁻¹ | Kd (recombinant mouse PCSK9 [4]): 17.7 nM | koff (recombinant mouse PCSK9 [4]): 0.00197 s⁻¹ | kon (recombinant mouse PCSK9 [4]): 111000 M⁻¹ s⁻¹ | IC50 (recombinant human PCSK9 [5]): 1.5 nM | IC50 (recombinant mouse PCSK9 [6]): 10 nM | IC50 (read off the curve) (recombinant human PCSK9 [7]): ~2 nM

B3: anti-PCSK9 antagonist monoclonal antibody 5A10 (antibody, V domains shown)
VH: QVQLQQPGAELVKPGASVKLSCKASGYTFTSYWMHWVKQRPGQGLEWIGEINPSNGRTNYNEKFKSKATLTVDKSSSTAYMQLSSLTSEDSAVYYCARERPLYAMDYWGQGTSVTVSS
VL: DIVMTQSHKFMSTSVGDRVSITCKASQDVSTAVAWYQQKPGQSPKLLIYSASYRYTGVPDRFTGSGSGTDFTFTISSVQAEDLAVYYCQQRYSTPRTFGGGTKLEIKR
notes: Murine full-length IgG from a hybridoma; Mouse precursor of L1L3; also called 5A10.B8 (subclone)
IC50 (read off the curve) (recombinant mouse PCSK9 [1]): ~3 nM | binding result (rat PCSK9 in plasma): binds | IC50 (recombinant human PCSK9 [2]): 6 nM | Kd (PCSK9 [8]): 1.1 nM | Kd (recombinant human PCSK9 [3]): 1 nM | koff (recombinant human PCSK9 [3]): 8.55e-05 s⁻¹ | kon (recombinant human PCSK9 [3]): 84700 M⁻¹ s⁻¹ | Kd (recombinant mouse PCSK9 [4]): 3.9 nM | koff (recombinant mouse PCSK9 [4]): 0.000489 s⁻¹ | kon (recombinant mouse PCSK9 [4]): 127000 M⁻¹ s⁻¹ | IC50 (recombinant human PCSK9 [5]): 0.4 nM | IC50 (recombinant mouse PCSK9 [6]): 3 nM | IC50 (read off the curve) (recombinant human PCSK9 [7]): ~0.3 nM

Results, then the binder that gave them:

IC50 (read off the curve) (recombinant mouse PCSK9 [1]): ~0.9 nM | binding result (rat PCSK9 in plasma): binds | IC50 (recombinant human PCSK9 [2]): 5.4 nM | Kd (recombinant human PCSK9 [3]): 6.4 nM | koff (recombinant human PCSK9 [3]): 0.000794 s⁻¹ | kon (recombinant human PCSK9 [3]): 125000 M⁻¹ s⁻¹ | Kd (recombinant mouse PCSK9 [4]): 1.3 nM | IC50 (recombinant human PCSK9 [5]): 1.5 nM | IC50 (recombinant mouse PCSK9 [6]): 1 nM | IC50 (read off the curve) (recombinant human PCSK9 [7]): ~1 nM
B2: anti-PCSK9 antagonist monoclonal antibody 7D4 (antibody, V domains shown)
VH: EVKLVESEGGLVQPGSSMKLSCTASGFTFSDYYMAWVRQVPEKGLEWVANINYDGSNTSYLDSLKSRFIISRDNAKNILYLQMSSLKSEDTATYYCAREKFAAMDYWGQGTSVTVSS
VL: B3 VL with V15F, T31N, V33L, Q42H, Y49F, R91H, R96W
notes: Murine full-length IgG from a hybridoma; also called 7D4.4 (subclone); ATCC PTA-8983

IC50 (read off the curve) (recombinant mouse PCSK9 [1]): ~3 nM | binding result (rat PCSK9 in plasma): binds | IC50 (recombinant human PCSK9 [2]): 7.1 nM | Kd (recombinant human PCSK9 [3]): 2.8 nM | koff (recombinant human PCSK9 [3]): 0.000189 s⁻¹ | kon (recombinant human PCSK9 [3]): 66600 M⁻¹ s⁻¹ | Kd (recombinant mouse PCSK9 [4]): 5.1 nM | koff (recombinant mouse PCSK9 [4]): 0.00072 s⁻¹ | kon (recombinant mouse PCSK9 [4]): 141000 M⁻¹ s⁻¹ | IC50 (recombinant human PCSK9 [5]): 0.4 nM | IC50 (recombinant mouse PCSK9 [6]): 3 nM | IC50 (read off the curve) (recombinant human PCSK9 [7]): ~0.2 nM
B4: anti-PCSK9 antagonist monoclonal antibody 4A5 (antibody, V domains shown)
VH: EVQLQQSGPELVKPGASVKISCKASGYTFTDYYMNWVKQSHGKSLEWIGDINPNNGGTTYNQKFKGKATLTVDKSYSTAYMELRSLTSEDSAVYYCARWLLFAYWGQGTLVTVSA
VL: DIVMTQSQKFMSTSVGDRVSVTCKASQNVGTNVAWYQQKPGQSPKALIYSASYRYSGVPDRFTGSGSGTDFTLTISNVLSEDLAEYFCQQFYSYPYTFGGGTKLEIKR
notes: Murine full-length IgG from a hybridoma; also called 4A5.G3 (subclone); ATCC PTA-8985

Kd (recombinant human PCSK9 [9]): 0.1 nM | Kd (recombinant mouse PCSK9 [10]): 0.2 nM | Kd (PCSK9 [11]): 0.007 nM
B5: L1L3 humanized anti-PCSK9 monoclonal antibody (antibody, V domains shown)
VH: QVQLVQSGAEVKKPGASVKVSCKASGYTFTSYYMHWVRQAPGQGLEWMGEISPFGGRTNYNEKFKSRVTMTRDTSTSTVYMELSSLRSEDTAVYYCARERPLYASDLWGQGTTVTVSS
VL: DIQMTQSPSSLSASVGDRVTITCRASQGISSALAWYQQKPGKAPKLLIYSASYRYTGVPSRFSGSGSGTDFTFTISSLQPEDIATYYCQQRYSLWRTFGQGTKLEIKR
